# Target: WXyn43, GH43 β-xylosidase from Weissella sp. strain 92 (full-length enzyme) (Weissella sp. strain 92)
# Experiment: SEC
substance,measurement,value
"WXyn43, GH43 β-xylosidase from Weissella sp. strain 92 (full-length enzyme)",stoichiometry N,4

# — publication PMC4691288
